Tested on: Akt
Assay: SCF-induced Akt activation (Akt in vitro kinase assay, histone H2B substrate) in primary bone marrow-derived mast cells
Format: cell-based, mouse

B1: SCF: murine stem cell factor (R & D Systems, Inc.), bivalent ligand of the Kit receptor (protein)
chain: KEICGNPVTDNVKDITKLVANLPNDYMITLNYVAGMDVLPSHCWLRDMVIQLSLSLTTLLDKFSNISEGLSNYSIIDKLGKIVDDLVLCMEENAPKNIKESPKRPETRSFTPEEFFSIFNRSIDAFKDFMVASDTSDCVLSSTLGPEKDSRVSVTKPFMLPPVA
+/+ and loxP/loxP mast cells, 100 ng/ml murine SCF, 8 minutes, 37° C.
  Akt activation: 5 fold
Y719F/Y719F mast cells, SCF stimulation
  Akt activation relative to wild type levels: 12%

Source: patent US20030084466A1, “System and method for controlling male fertility” (priority 2000, published 2003)
